How the values were obtained:
[1] = biological target: native phenolic acid decarboxylase from Neolentinus lepideus strain BRFM15 (NlePAD) (Neolentinus lepideus (strain BRFM15)); experiment: SEC; purified native NlePAD on a Superdex 75 Prep Grade column in buffer A (20 mM sodium phosphate pH 7.5, 0.4 M saccharose, 2 mM DTT); calibrated with BSA, alpha-amylase, ovalbumin, casein and lysozyme; native mass 43-45 kDa compared with the 22 kDa band in SDS-PAGE
purified protein = substrate: COc1cc(/C=C/C(=O)O)ccc1O; experiment: purified protein; conditions: pH 6, 50 mM sodium phosphate, 45 °C, 0.5-10 mM substrate, 30 min, apparent KM
[2] = substrate: COc1cc(/C=C/C(=O)O)cc(OC)c1O; experiment: HPLC of canolol formed, Lineweaver-Burk plot; assay type: biochemical, Neolentinus lepideus; conditions: pH 6, 50 mM sodium phosphate, 37 °C, 0.5-10 mM substrate, 30 min, apparent KM

native phenolic acid decarboxylase from Neolentinus lepideus strain BRFM15 (NlePAD) (enzyme)
stoichiometry N [1]: 2

B1: NlePAD (Neolentinus lepideus HHB14362 ss-1) (protein)
chain: MSHEGATSEEFKQIEGKRFKYTYGLGWTYEMYFRSLTRCVYRILSGPLAGRVNFQHAHYQKIRDNVWQCSWLEETGTVVSMVVDFDQQTVKTFATFSRGHWDLPDQAKGWKRNPEDMARWRTLAQKGKDQADKHVLVEHAKMSELTSGQGDLPDIDDSWETM
notes: homodimer 2 x 22 kDa (SEC 43-45 kDa)
Km (purified protein): 2.6 mM
kcat/Km (purified protein): 14800 M⁻¹ s⁻¹
Km [2]: 3.9 mM
kcat/Km [2]: 1600 M⁻¹ s⁻¹

— paper PMC10886158, “A New Phenolic Acid Decarboxylase from the Brown-Rot Fungus Neolentinus lepideus Natively Decarboxylates Biosourced Sinapic Acid into Canolol, a Bioactive Phenolic Compound” (Bioengineering, 2024)
